We go through 19 molecules from patent CN117677637A (PETEMEDI LTD, dated 2024).

Test [1] has as its target T1, 犬CD20 (canine CD20, B淋巴细胞抗原CD20, full length, wild type) (canine (dog), UniProt Q3C2E2 1-297).
T1 construct: Stably expressed from full-length cDNA on MDCK II (or HEK293) cells for flow cytometry and ADCC; naturally expressed on CLBL-1 canine lymphoma cells in the CDC assay; also called cCD20; MS4A1
T1 chain: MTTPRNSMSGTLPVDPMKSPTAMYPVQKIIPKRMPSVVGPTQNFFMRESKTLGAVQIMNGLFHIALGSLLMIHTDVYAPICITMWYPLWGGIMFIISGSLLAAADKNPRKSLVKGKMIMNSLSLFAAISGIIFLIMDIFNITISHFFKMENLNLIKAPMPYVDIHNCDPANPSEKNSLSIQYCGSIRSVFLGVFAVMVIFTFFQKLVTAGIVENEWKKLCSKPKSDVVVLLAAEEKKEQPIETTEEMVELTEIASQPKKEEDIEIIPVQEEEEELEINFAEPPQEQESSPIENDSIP
Briefly: flow cytometry, 10 ug/ml antibody on MDCK II cells expressing canine CD20 (Fig 3A).

The target of test [2] is T1, 犬CD20 (canine CD20, B淋巴细胞抗原CD20, full …). Briefly: flow cytometry, 10 ug/ml antibody on MDCK II cells expressing canine CD20 (Fig 3C).
Test [3] shares this target. The experiment in a line: flow cytometry, 10 ug/ml antibody on MDCK II cells expressing canine CD20 (Fig 3B). On the technique in general: In flow cytometry, cells or beads pass a laser one at a time.

B1: PMX001 (antibody, V domains shown)
VH: EVQLVESGGDLVKPGGSLRLSCVASGFTFSSYHMSWVRQAPGKGLQWVAYINSGGSSTTYADAVKGRFTISRDNAKKTLYLQMNSLRAEDTAVYYCSTFDYWGQGTLVTVSS
VL: SYVLTQLPSRNVTLKQPAHITCGGDNIGSKSVHWYQQKLGQAPVLIIYYDTRRPTGIPERFSGANSGNTATLTISGALAEDEADYYCQVWDSSGNVFGGGTHLTVL
notes: Fully canine mAb; also called PMX001 mAb
Consider B1, for which the binding result in test [1] is “binds”.

B2: PMX004 (antibody, V domains shown)
VH: EVQLVESGGELVKPGGSLRVSCVASGITFSRYHMSWVRQAPGKGLQWVAFINTDRSSPKYADSVKGRFTISRDNAKNTLYLQMNSLRAEDTAIYYCTSFDYWGQGTLVTVSS
VL: SYVLTQLPSKNVTLKQPAHITCGGDNIGSKSVHWYQQKLGQAPVLIIYYDSSRPTGIPERFSGANSGNTATLTISGALAEDEADYYCQVWDSSANVFGGGTHLTVL
notes: Fully canine mAb; also called PMX004 mAb
On to B2, for which, in test [1], the binding result is listed as “binds”.

B3: PMX081 (antibody, V domains shown)
VH: EVQLVQSGGDLVKPGGSLRLSCVASGYTFTRYHMSWVRQAPGKGLQWVAFINSDGTGITYGDAVKGRFTISRDNAKNTLYLQMNSLRAEDTAIYYCTTFDSWGQGTLVTVSS
VL: SYVLTQLPSKNVTLKQPAHITCGGDNIGSKSVHWYQQKLGQAPILIIYYDSRRPTGIPERFSGANSGNTATLTISGALAEDEADYYCQVWDSSGNVFGGGTHLTVL
For B3, in test [2], the binding result is listed as “binds”.

B4: PMX078 (antibody, V domains shown)
VH: EVQLVESGGDLVKPGGSLRLSCVASGLTFSRYHMSWIRQAPGKGLQWVAYISSGGSSTNYAGSVKGRFTVSRDNAKNTLYLQMNSLRAEDTAVYYCTSLDYWGQGTLVTVSS
VL: SYVLTQLPSKNVTLKQPAHITCGGDNIGSKSVHWYQQKLGQAPVLIIYYDSRRPTGIPERFSGANSGNTATLTISGALAEDEADYYCQVWDSSDNVFGGGTHLTVL
With B4, the binding result in test [2] was “binds”.

B5: PMX075 (antibody, V domains shown)
VH: EVQLVESGGDLVKPGGSLRLSCVASGITFSRYHMSWVRQAPGKGLQWVAFINTGRSSTNYADAVAGRFTISRDNAKNTLYLQMNGLTVEDTAVYYCSTLDYWGQGTLVTVSS
VL: SYVLTQLPSKSVTLKQPAHITCGGDNIGSKSVHWYQQKLGQAPILIIYYDNNRPTGIPERFSGANSGNTATLTISGALAEDEADYYCHVWDSSVNVFGGGTHLTVL
As to B5, the binding result in test [2] is on record as “binds”.

B6: PMX074 (antibody, V domains shown)
VH: EVQLVESGGDLVKPGGSLRLSCVASGFTFSRYYMTWVRQAPGKGLQWVAYINSDRRSTTYADAVKGRFTISRDNAKNTLYLQMNSLRAEDTAVYYCTTLEYWGQGTLVTVSS
VL: SYVLTQLPSKNVTLKQPAHITCGGDNIGSKSVHWYQQKLGQAPVLIIYYDSRRPTGIPERFSGANSGNTATLTINGALAEDEADYYCQVWDSSANVFGGGTHLTVL
In the case of B6, in test [2], the binding result is reported as “binds”.

B7: PMX066 (antibody, V domains shown)
VH: AVQLVESGGDLVKPGGSLRLSCVASGITFSRYHMSWVRQAPGKGLQWVAYINSGGSATSYTDAVKGRFSISRDNGKNTLYLQMNSLRVEDSAVYYCTTLDLWGQGTLVTVSS
VL: SYVLTQLPSKNVTLKQPAHITCGGDNIGSKSVHWYQQKLGQAPVLIIYYDSRRPTGIPERFSGANSGNTATLTINGALAEDEADYYCQMWDSSANVFGGGTHLTVL
notes: Canine mAb
For B7, the binding result in test [2] is “binds”.

B8: PMX069 (antibody, V domains shown)
VH: EMQLVESGGALVKPGGSLRLSCVASGFTFRRYHMSWVRQAPGQGLQWVAYIDSDGSPTSYGDSVKGRFTISRDNAKNTLFLQMNSLRVDDTAVYYCTTLDYWGRGTLVTVSS
VL: SYVLTQVPSKNVTLKQPAHITCGGDNIGGKSVHWYQQKLGQAPLLIIYYDTRRPTGIPERFSGANSGNTATLTISRALAEDEADYYCQVWDSSGNVFGGGTHLTVI
notes: also called PMX0069
In the case of B8, in test [2], the binding result is listed as “binds”.

B9: PMX076 (antibody, V domains shown)
VH: EVQLVESGGDLVKPGGSLRLSCVASGITFSRYYMNWVRQAPGKGLQWVAYIDSGGSPTTYADAVKGRFTISRDNAKKALYLQMNSLRAEDTAVYYCTSFDYWGQGTLVTVSS
VL: SYVLTQLPSKNVTLKQPAHITCGGDNIGSKSVHWYQQKLGQAPVLIIYYDSSRPTGIPERFSGANSGNTATLTISGALAEDEADYFCQVWDSSANVFGGGTHLTVL
As to B9, the binding result in test [2] is “binds”.

B10: PMX080 (antibody, V domains shown)
VH: EVQLVESGGDLVKPGGSLRLSCVASGLTFSRYYMNWVRQAPGKGLQWVAYIDSGGSPTNYADAVKGRFTISRDNAKNTLYLQMNSLRAEDTAVYYCSSFDYWGQGTLVTVSS
VL: SYVVTQLPSNTVTLKQPAHITCGGDNIGSKSVHWYQQKLGQAPVLIIYYDSRRPTGIPERFSGANSGNTATLTISGALAEDEADYYCQVWDSSANVFGGGTHLTVL
In the case of B10, the binding result in test [2] is reported as “binds”.

B11: PMX071 (antibody, V domains shown)
VH: EVHLVESGGDLVKPGGSLRLSCVASGITFNRYYMNWVRQTPGKGLQWVAYIDSGGSPTTYADAVKGRFTISRDNAKNTLYLQMNSLRAEDTAVYYCTSFDYWGQGTLVTVSS
VL: SYVLTQLPSKNVTLKQPAHITCGGDNIGSKSVHWYQQKLGQAPILIIYYDTSRPTGIPERFSGANSGNTATLTISGALAEDEADYYCQVWDSSANVFGGGTHLTVL
Regarding B11, in test [2], the binding result was “binds”.

B12: PMX070 (antibody, V domains shown)
VH: EMQLVESGGDLVKPGGSLRLSCVASGFTFSRYHMSWVRQAPGKGLQWVAYINSGGSPTNYADAVKGRFTISRDNAKNTLYLQMNSLRAEDTAVYYCTTYDQWGQGTLVTVSS
VL: SYVLTQLPSKSVTLKQPAHITCGGDNIGSKSVHWYQQKLGQAPVLIIYYDSSRPTGIPERFSGANSGNTATLTISGALAEDEADYYCQVWDTSANVFGGGTHLTVL
On to B12, for which the binding result in test [2] is “binds”.

B13: PMX005 (antibody, V domains shown)
VH: EVQLVESGGDLVKPGGSLRLSCVASGFTFSRYHMSWVRQAPGKGLQWVAYINSGGSDSDYADAVKGRFTISRDNAKNTLYLQMNSLRAEDTAVYYCTSLDYWGQGTLVTVSS
VL: SYVLTQLPSKNVTLKQPAHITCGGDNIGSKSVHWYQQKLGQAPVLIIYYDSSRPTGIPERFSGANSGNTATLTISGALAEDEADYYCQVWDRSGNVFGGGTHLTVL
notes: Fully canine mAb; also called PMX005 mAb
Take B13: the binding result in test [1] was “binds”.

B14: PMX073 (antibody, V domains shown)
VH: EVQLVESGGDLVKPGGSLRLSCVASGFTFSRYYMNWVRQAPGKGLQWVAFITSGGSSTSYGDAVKGRFTISRDNAKNTLYLQMNSLRAEDTAVYYCTSFDYWGQGTLVTVSS
VL: SYVLTQLPSKNVTLKQPAHITCGGDNIGSKSVHWYQQKLGQAPVLIIYYASSRPTGIPERFSGANSGNTATLTISGALAEDEADYYCQVWDSSANVFGGGTHLTVL
As for B14, the binding result in test [2] was “binds”.

B15: PMX079 (antibody, V domains shown)
VH: EVQLVESGGDLVKPGGSLRLSCVASGLTFSRYHMSWVRQAPGKGLQWVAFINSGRSDTTYADAVKGRFTISRDNAKNTLYLQMNSLRAEDTAVYYCTTFDYWGQGTLVTVSS
VL: SYVLTQLPSKNVTLKQPAHITCGGDNIGSKSVHWYQQKLGQAPALIIYYDSSRPTGIPERFSGANSGNTATLTISGALAEDEADYYCQVWDSSANVFGGGTHLTVL
As for B15, the binding result in test [2] is “binds”.

B16: PMX010 (antibody, V domains shown)
VH: EVQLVESGGDLVKPGGSLRLSCVASGITFSRYHMSWVRQAPGKGLQWVAYINSGGSSTSYPDAVKGRFTISRDNAKNTLYLQMDSLRAEDTALYYCTTFDYWGQGTLVTVSS
VL: SYVLTQLPSKSVTLKQPAHITCGGDNIGSKSVHWYQQKLGQAPVLIIYYDSRRPTGIPERFSGANSGNTATLTISGALAEDEADYYCQVWDSSANVFGGGTHLTVL
notes: PMX003 heavy chain; Constant regions not restated (PMX003: dog IGGB / dog IGLC5); also called PMX010 mAb; SVT
On to B16, for which, in test [3], the binding result was “binds”.

B17: PMX067 (antibody, V domains shown)
VH: EIQLVESGGDLVKPGGSLRLSCVASGFTFSRYHMSWVRQAPGKGLQWVAYINTGGSNTNYADAVKGRFTISRDNAKNTLYLQMNSLRAEDTAVYYCTTLDSWGQGTLVTVSS
VL: SYVLTQLPFKNVTLKQPAHITCGGDNIGSKSVHWYQQKLGQAPVLIIYYDSRRPTGIPERFSGANSGNTATLTISGALAEDEADYYCQVWDSSVNVFGGGTHLTVL
notes: also called PMX0067
As for B17, the binding result in test [2] is “binds”.

B18: PMX077 (antibody, V domains shown)
VH: EVQLVESGGDLVKPGGSLRLSCVASGITFSRYYMNWVRQAPGKGLQWVAYINSGGSPTTYADAVKGRFTISRDNAKNTLYLQMNSLRAEDTAVYYCTSFDYWGQGTLVTVSS
VL: SYVLTQLPSKNVTLKQPAHITCGGDNIGSKSVHWYQQKLGQAPILIIYYDTSRPTGIPERFSGANSGNTATLTISGALAEDEADYYCQVWDSSANVFGGGTHLTVL
In the case of B18, the binding result in test [2] is given as “binds”.

B19: PMX072 (antibody, V domains shown)
VH: EVQLVESGGDLVKPGGSLRLSCVASGFTFSRYHMSWVRQAPGKGLQWVAFINTGRSSTNYADAVAGRFTISRDNAKNTLYLQMNSLRAEDTAVYYCSTLDYWGQGTLVTVSS
VL: SYVLTQLPSKNVTLKQPAHITCGGDNIGSKSVHWYQQKLGQAPVLIIYYDSSRPTGIPERFSGANSGNTATLTISGALAEDEADYYCQVWDSSANVFGGGTHLTVL
Consider B19, for which the binding result in test [2] is given as “binds”.
